The values below come from PMC5392571, “A model for the conformational activation of the structurally quiescent metalloprotease ADAMTS13 by von willebrand factor” (The Journal of Biological Chemistry, 2017).

For test [1], the target named is T1, dimeric VWF D4-CK domain fragment (VWF residues 1874–2813) (UniProt P04275 1874-2813).
T1 construct: von Willebrand factor, residues 1874-2813 (D4 to CK domains); source: HEK293S, transiently expressed, purified by FPLC
Nature of the test: SPR; BIAcore T100, CM5 chip; ADAMTS13, its truncation variants or CUB fragments immobilised, VWF D4-CK as analyte; 10 mM HEPES, 150 mM NaCl, pH 7.4, 0.0034 mM EDTA, 0.005% Tween 20; global analysis. To be noted: both partners purified.

Test [2] concerns the target T2, WT MDTCS (ADAMTS13 residues 1–685) (human, UniProt Q76LX8 30-685).
T2 construct: signal peptide in the construct; ADAMTS13, human, residues 1-685 (metalloprotease, disintegrin-like, TSP1, cysteine-rich and spacer domains); In pCEP4; also called truncated ADAMTS13 variant MDTCS; source: HEK293S cells, purified; not shown: His6, C-terminal, kept
T2 sequence (looked up): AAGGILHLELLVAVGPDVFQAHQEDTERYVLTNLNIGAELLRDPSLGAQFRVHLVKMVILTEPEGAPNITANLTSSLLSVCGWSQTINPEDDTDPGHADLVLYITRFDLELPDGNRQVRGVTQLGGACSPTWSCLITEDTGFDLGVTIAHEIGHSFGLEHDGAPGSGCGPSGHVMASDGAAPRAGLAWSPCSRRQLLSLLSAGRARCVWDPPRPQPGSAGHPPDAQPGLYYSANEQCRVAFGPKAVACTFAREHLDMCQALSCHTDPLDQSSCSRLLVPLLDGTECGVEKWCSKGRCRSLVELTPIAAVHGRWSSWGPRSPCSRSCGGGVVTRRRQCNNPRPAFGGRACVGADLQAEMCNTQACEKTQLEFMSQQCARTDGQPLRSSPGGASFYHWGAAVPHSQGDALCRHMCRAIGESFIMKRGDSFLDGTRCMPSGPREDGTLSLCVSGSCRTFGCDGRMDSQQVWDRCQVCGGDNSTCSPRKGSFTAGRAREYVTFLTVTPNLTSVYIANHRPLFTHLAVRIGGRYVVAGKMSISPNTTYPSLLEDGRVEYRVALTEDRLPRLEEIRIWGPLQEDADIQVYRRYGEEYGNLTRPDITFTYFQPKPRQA
Description: SPR; BIAcore T100, CM5 chip; 10 mM HEPES, 150 mM NaCl, pH 7.4, 0.0034 mM EDTA, 0.005% Tween 20; the text says MDTCS variants were immobilised, the legend of Fig. 1 says the CUB fragments were; global analysis. Conditions: both partners purified. (In general: In SPR one partner is held on a chip, and binding of the other changes the refractive index at the surface.)

B1: CUB2 domain fragment (ADAMTS13 residues 1299–1427) (domain or fragment, human, UniProt Q76LX8 1299-1427, looked up)
chain: CDMQLFGPWGEIVSPSLSPATSNAGGCRLFINVAPHARIAIHALATNMGAGTEGANASYILIRDTHSLRTTAFHGQQVLYWESESSQAEMEFSEGFLKAQASLRGQYWTLQSWVPEMQDPQSWKGKEGT
notes: ADAMTS13, human, residues 1299-1427 (CUB2 domain); Generated by inverse PCR from the full-length ADAMTS13 construct (C-terminal Myc/His6); detected by anti-His6 in the co-IP; also called isolated CUB2 fragment; source: HEK293S cells, purified
Regarding B1, the dissociation constant (Kd) turned out to be 84.3 nM in test [1] and 86.9 nM in test [2].

B2: CUB1-2 domain fragment (ADAMTS13 residues 1192–1427) (domain or fragment, human, UniProt Q76LX8 1192-1427, looked up)
chain: CGRQHLEPTGTIDMRGPGQADCAVAIGRPLGEVVTLRVLESSLNCSAGDMLLLWGRLTWRKMCRKLLDMTFSSKTNTLVVRQRCGRPGGGVLLRYGSQLAPETFYRECDMQLFGPWGEIVSPSLSPATSNAGGCRLFINVAPHARIAIHALATNMGAGTEGANASYILIRDTHSLRTTAFHGQQVLYWESESSQAEMEFSEGFLKAQASLRGQYWTLQSWVPEMQDPQSWKGKEGT
notes: ADAMTS13, human, residues 1192-1427 (CUB1 and CUB2 domains); Generated by inverse PCR from the full-length ADAMTS13 construct (C-terminal Myc/His6); source: HEK293S cells, purified
With B2, the Kd in test [1] turned out to be 51.8 nM; in test [2] it was 55.6 nM.

B3: CUB1 domain fragment (ADAMTS13 residues 1192–1298) (domain or fragment, human, UniProt Q76LX8 1192-1298, looked up)
chain: CGRQHLEPTGTIDMRGPGQADCAVAIGRPLGEVVTLRVLESSLNCSAGDMLLLWGRLTWRKMCRKLLDMTFSSKTNTLVVRQRCGRPGGGVLLRYGSQLAPETFYRE
notes: ADAMTS13, human, residues 1192-1298 (CUB1 domain); Generated by inverse PCR from the full-length ADAMTS13 construct (C-terminal Myc/His6); detected by anti-His6 in the co-IP; also called isolated CUB1 fragment; source: HEK293S cells, purified
In the case of B3, the Kd was 53.7 nM in test [1] and 135 nM in test [2].

In general, Kd refers to the free concentration of one partner at which half of the binding sites on the other are occupied at equilibrium, for simple one-to-one binding.
